Series [1] has as its target T1, med-2 (K04C2.6) (Caenorhabditis elegans) (UniProt G5EF25).
T1 sequence: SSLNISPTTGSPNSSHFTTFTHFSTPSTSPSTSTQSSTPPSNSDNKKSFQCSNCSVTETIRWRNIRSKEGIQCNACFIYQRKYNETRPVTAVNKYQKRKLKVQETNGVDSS

Series [2] relates to ceh-53 (C09G12.1) (Caenorhabditis elegans).
In series [3] the target is ceh-36 (C37E2.4) (Caenorhabditis elegans) (UniProt Q93352).
Series [4] concerns the target ceh-37 (C37E2.5) (Caenorhabditis elegans) (UniProt Q93356).
Series [5] deals with T2, ceh-34 (C10G8.6) (Caenorhabditis elegans) (UniProt Q94165).
T2 sequence: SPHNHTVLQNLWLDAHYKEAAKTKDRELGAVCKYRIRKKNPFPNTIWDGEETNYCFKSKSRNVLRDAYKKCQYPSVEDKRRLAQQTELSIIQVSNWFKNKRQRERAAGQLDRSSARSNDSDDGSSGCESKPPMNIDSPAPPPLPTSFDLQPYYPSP

In series [6] the target is dmd-4 (C27C12.6) (Caenorhabditis elegans) (UniProt Q18248).
Series [7] addresses T3, C27D6.4 (C27D6.4) (Caenorhabditis elegans) (UniProt Q4JFH9).
T3 sequence: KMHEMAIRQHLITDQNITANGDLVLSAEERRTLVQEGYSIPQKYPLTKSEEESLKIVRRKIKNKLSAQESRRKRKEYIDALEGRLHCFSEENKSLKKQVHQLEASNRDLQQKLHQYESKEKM

Series [8] concerns the target T4, atf-6 (F45E6.2) (Caenorhabditis elegans) (UniProt Q20435).
T4 sequence: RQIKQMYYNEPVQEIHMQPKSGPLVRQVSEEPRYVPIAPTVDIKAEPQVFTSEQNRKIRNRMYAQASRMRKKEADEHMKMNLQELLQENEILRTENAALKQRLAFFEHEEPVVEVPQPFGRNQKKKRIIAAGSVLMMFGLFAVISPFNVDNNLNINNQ

The target in series [9] is T5, C07E3.6 (C07E3.6) (Caenorhabditis elegans) (UniProt Q17792).
T5 sequence: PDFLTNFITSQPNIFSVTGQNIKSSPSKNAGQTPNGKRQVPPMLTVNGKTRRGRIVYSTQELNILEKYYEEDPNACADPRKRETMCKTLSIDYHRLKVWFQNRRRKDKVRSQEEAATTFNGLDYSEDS

In series [10] the target is T6, end-1 (F58E10.2) (Caenorhabditis elegans) (UniProt G5EDN4).
T6 sequence: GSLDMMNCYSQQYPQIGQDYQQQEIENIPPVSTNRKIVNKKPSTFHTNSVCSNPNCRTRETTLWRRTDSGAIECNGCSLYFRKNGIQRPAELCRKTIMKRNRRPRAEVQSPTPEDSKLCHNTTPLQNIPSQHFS

Series [11] concerns the target atf-7 (C07G2.2) (Caenorhabditis elegans) (UniProt Q86MD3).

Chain of ceh-53 (C09G12.1) (Caenorhabditis elegans) (chain, as listed by the source): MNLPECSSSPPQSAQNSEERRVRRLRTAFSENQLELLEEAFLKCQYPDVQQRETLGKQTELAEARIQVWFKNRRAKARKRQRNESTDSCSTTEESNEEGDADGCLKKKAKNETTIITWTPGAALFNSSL
Chain of ceh-37 (C37E2.5) (Caenorhabditis elegans) (Q93356 1-148): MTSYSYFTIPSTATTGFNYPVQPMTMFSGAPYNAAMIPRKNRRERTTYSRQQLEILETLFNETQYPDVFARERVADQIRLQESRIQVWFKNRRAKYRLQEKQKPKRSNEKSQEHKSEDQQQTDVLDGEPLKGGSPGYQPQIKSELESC
Chain of ceh-36 (C37E2.4) (Caenorhabditis elegans) (Q93352 6-165): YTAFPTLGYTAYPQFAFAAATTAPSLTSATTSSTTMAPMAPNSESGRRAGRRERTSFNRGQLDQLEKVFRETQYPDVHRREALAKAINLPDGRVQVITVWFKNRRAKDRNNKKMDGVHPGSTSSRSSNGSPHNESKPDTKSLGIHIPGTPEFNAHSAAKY
Chain of dmd-4 (C27C12.6) (Caenorhabditis elegans) (Q18248 1-114): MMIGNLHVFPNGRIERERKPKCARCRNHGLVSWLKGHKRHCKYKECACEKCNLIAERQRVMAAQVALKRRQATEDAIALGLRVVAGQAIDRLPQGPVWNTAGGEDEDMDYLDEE
Chain of atf-7 (C07G2.2) (Caenorhabditis elegans) (Q86MD3 339-508): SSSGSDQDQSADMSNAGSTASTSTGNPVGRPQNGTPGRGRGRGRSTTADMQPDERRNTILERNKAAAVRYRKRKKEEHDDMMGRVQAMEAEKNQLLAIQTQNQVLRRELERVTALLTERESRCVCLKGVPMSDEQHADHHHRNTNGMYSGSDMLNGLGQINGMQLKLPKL

On to “AAAGTATA (double strand) [8-mer AAAGTATA]”, for which, in series [1], the binding signal (PBM E-score (-0.5 to 0.5)) stood at 0.496.
For the sequence “AAGGATTA (double strand) [8-mer AAGGATTA]”, the binding signal (PBM E-score (-0.5 to 0.5)) amounted to 0.495 in series [2], 0.492 in series [3] and 0.493 in [4].
For “AAGTATAC (double strand) [8-mer AAGTATAC]”, the binding signal (PBM E-score (-0.5 to 0.5)) in [1] was 0.499.
In the case of “AAGTATCA (double strand) [8-mer AAGTATCA]”, the binding signal (PBM E-score (-0.5 to 0.5)) in series [5] was determined as 0.468.
Take “AATGATAC (double strand) [8-mer AATGATAC]”: the figures for the binding signal (PBM E-score (-0.5 to 0.5)) in [6] and in series [5] were 0.482 and 0.461, respectively.
Regarding “ACGGATTA (double strand) [8-mer ACGGATTA]”, the binding signal (PBM E-score (-0.5 to 0.5)) in series [2] turned out to be 0.494; in series [4] it was 0.487.
Turning to “ACGTGGCA (double strand) [8-mer ACGTGGCA]”, the binding signal (PBM E-score (-0.5 to 0.5)) in series [7] was determined as 0.499; in series [8] it was 0.477.
As for “ACGTGGCT (double strand) [8-mer ACGTGGCT]”, the binding signal (PBM E-score (-0.5 to 0.5)) was determined as 0.492 in [7] and 0.466 in series [8].
As for “ACTAATCC (double strand) [8-mer ACTAATCC]”, the binding signal (PBM E-score (-0.5 to 0.5)) in series [2] was found to be 0.497; in series [3], 0.49.
Take “AGGATTAA (double strand) [8-mer AGGATTAA]”: the binding signal (PBM E-score (-0.5 to 0.5)) was 0.494 in series [2], 0.492 in [3] and 0.491 in [4].
“AGGATTAG (double strand) [8-mer AGGATTAG]”: the results for the binding signal (PBM E-score (-0.5 to 0.5)) in [2] and in series [3] were 0.496 and 0.492, respectively.
In [4], “AGGGATTA (double strand) [8-mer AGGGATTA]” came in with a binding signal (PBM E-score (-0.5 to 0.5)) of 0.487.
For the sequence “AGGGTATC (double strand) [8-mer AGGGTATC]”, the binding signal (PBM E-score (-0.5 to 0.5)) in series [5] amounted to 0.466.
For the sequence “AGGTATAC (double strand) [8-mer AGGTATAC]”, in series [1], the binding signal (PBM E-score (-0.5 to 0.5)) is 0.496.
The sequence “AGGTATCA (double strand) [8-mer AGGTATCA]” displayed a binding signal (PBM E-score (-0.5 to 0.5)) in [5] of 0.474.
Sequence “AGTAATTA (double strand) [8-mer AGTAATTA]” had a binding signal (PBM E-score (-0.5 to 0.5)) in series [9] of 0.494.
On to “AGTATACA (double strand) [8-mer AGTATACA]”, for which the binding signal (PBM E-score (-0.5 to 0.5)) in series [1] came to 0.498.
The sequence “AGTATACC (double strand) [8-mer AGTATACC]” displayed a binding signal (PBM E-score (-0.5 to 0.5)) in [1] of 0.499.
Turning to “AGTATACG (double strand) [8-mer AGTATACG]”, the binding signal (PBM E-score (-0.5 to 0.5)) in [1] is 0.496.
For the sequence “AGTATACT (double strand) [8-mer AGTATACT]”, the binding signal (PBM E-score (-0.5 to 0.5)) in series [1] amounted to 0.5.
In the case of “AGTATCCA (double strand) [8-mer AGTATCCA]”, the binding signal (PBM E-score (-0.5 to 0.5)) in series [1] was determined as 0.495.
For “ATAATCCG (double strand) [8-mer ATAATCCG]”, the binding signal (PBM E-score (-0.5 to 0.5)) in series [4] was determined as 0.49.
Sequence “ATATCCCC (double strand) [8-mer ATATCCCC]” showed a binding signal (PBM E-score (-0.5 to 0.5)) in series [5] of 0.474.
Regarding “ATGATACC (double strand) [8-mer ATGATACC]”, the binding signal (PBM E-score (-0.5 to 0.5)) in series [5] was determined as 0.481.
Consider “ATGATATC (double strand) [8-mer ATGATATC]”, for which the binding signal (PBM E-score (-0.5 to 0.5)) turned out to be 0.484 in series [10] and 0.476 in series [5].
In the case of “ATTAATCC (double strand) [8-mer ATTAATCC]”, the binding signal (PBM E-score (-0.5 to 0.5)) in series [2] stood at 0.495; in [3], 0.494; in series [4], 0.492.
In the case of “ATTGATAC (double strand) [8-mer ATTGATAC]”, the results for the binding signal (PBM E-score (-0.5 to 0.5)) in series [6] and in [5] were 0.487 and 0.467, respectively.
“CACGTCAG (double strand) [8-mer CACGTCAG]” yielded a binding signal (PBM E-score (-0.5 to 0.5)) in [8] of 0.473.
For “CACGTGGC (double strand) [8-mer CACGTGGC]”, the binding signal (PBM E-score (-0.5 to 0.5)) in series [7] amounted to 0.499; in [8], 0.464.
As to “CAGTATAC (double strand) [8-mer CAGTATAC]”, the binding signal (PBM E-score (-0.5 to 0.5)) in [1] was 0.498.
In [8], “CCACGTAG (double strand) [8-mer CCACGTAG]” returned a binding signal (PBM E-score (-0.5 to 0.5)) of 0.478.
“CCACGTCA (double strand) [8-mer CCACGTCA]”: the binding signal (PBM E-score (-0.5 to 0.5)) stood at 0.496 in series [11], 0.496 in series [7] and 0.488 in [8].
On to “CCACGTGG (double strand) [8-mer CCACGTGG]”, for which the binding signal (PBM E-score (-0.5 to 0.5)) is 0.499 in series [7] and 0.48 in series [8].
Turning to “CGGATTAA (double strand) [8-mer CGGATTAA]”, the binding signal (PBM E-score (-0.5 to 0.5)) was 0.494 in series [2], 0.489 in [3] and 0.492 in [4].
“CGGATTAG (double strand) [8-mer CGGATTAG]” registered a binding signal (PBM E-score (-0.5 to 0.5)) in series [2] of 0.496.
As to “CGGTATAC (double strand) [8-mer CGGTATAC]”, the binding signal (PBM E-score (-0.5 to 0.5)) in series [1] stood at 0.495.
On to “CTAATCCC (double strand) [8-mer CTAATCCC]”, for which the binding signal (PBM E-score (-0.5 to 0.5)) was found to be 0.496 in series [2] and 0.49 in series [3].
“CTTAATCC (double strand) [8-mer CTTAATCC]”: the binding signal (PBM E-score (-0.5 to 0.5)) was determined as 0.494 in [2] and 0.489 in [3].
“GAGTATAC (double strand) [8-mer GAGTATAC]” yielded a binding signal (PBM E-score (-0.5 to 0.5)) in series [1] of 0.499.
“GAGTATCA (double strand) [8-mer GAGTATCA]”: the binding signal (PBM E-score (-0.5 to 0.5)) in series [5] is 0.46.
With “GATAATCC (double strand) [8-mer GATAATCC]”, the binding signal (PBM E-score (-0.5 to 0.5)) in series [4] was 0.491.
Turning to “GATACCCC (double strand) [8-mer GATACCCC]”, the binding signal (PBM E-score (-0.5 to 0.5)) in series [5] turned out to be 0.48.
“GATATCCC (double strand) [8-mer GATATCCC]” registered a binding signal (PBM E-score (-0.5 to 0.5)) in [5] of 0.466.
“GCCACGTA (double strand) [8-mer GCCACGTA]”: the values for the binding signal (PBM E-score (-0.5 to 0.5)) in series [7] and in [8] were 0.497 and 0.48, respectively.
For “GCGGATTA (double strand) [8-mer GCGGATTA]”, the binding signal (PBM E-score (-0.5 to 0.5)) in series [2] is 0.494; in [3], 0.491; in [4], 0.491.
With “GCTAATCC (double strand) [8-mer GCTAATCC]”, the figures for the binding signal (PBM E-score (-0.5 to 0.5)) in series [2], in series [3] and in [4] were 0.497, 0.493 and 0.49, respectively.
Turning to “GCTAATTA (double strand) [8-mer GCTAATTA]”, the binding signal (PBM E-score (-0.5 to 0.5)) in [9] came out at 0.496.
Consider “GGATTAAA (double strand) [8-mer GGATTAAA]”, for which the binding signal (PBM E-score (-0.5 to 0.5)) worked out at 0.49 in series [3] and 0.488 in series [4].
Turning to “GGATTAAC (double strand) [8-mer GGATTAAC]”, the binding signal (PBM E-score (-0.5 to 0.5)) came to 0.495 in [2], 0.49 in series [3] and 0.492 in series [4].
In the case of “GGGGGATA (double strand) [8-mer GGGGGATA]”, the binding signal (PBM E-score (-0.5 to 0.5)) in series [5] worked out at 0.463.
In turn, “GGGTATAC (double strand) [8-mer GGGTATAC]” gave a binding signal (PBM E-score (-0.5 to 0.5)) in [1] of 0.496.
With “GGGTATCA (double strand) [8-mer GGGTATCA]”, the binding signal (PBM E-score (-0.5 to 0.5)) in series [5] worked out at 0.49.
“GGTATACC (double strand) [8-mer GGTATACC]” displayed a binding signal (PBM E-score (-0.5 to 0.5)) in series [1] of 0.496.
With “GGTATCAC (double strand) [8-mer GGTATCAC]”, in series [5], the binding signal (PBM E-score (-0.5 to 0.5)) was 0.476.
On to “GTATACCA (double strand) [8-mer GTATACCA]”, for which the binding signal (PBM E-score (-0.5 to 0.5)) in series [1] is 0.495.
For “GTATACTA (double strand) [8-mer GTATACTA]”, in [1], the binding signal (PBM E-score (-0.5 to 0.5)) is 0.499.
The sequence “TAATCCGA (double strand) [8-mer TAATCCGA]” showed a binding signal (PBM E-score (-0.5 to 0.5)) in series [4] of 0.489.
In series [3], “TAATCCTA (double strand) [8-mer TAATCCTA]” yielded a binding signal (PBM E-score (-0.5 to 0.5)) of 0.492.

These data come from article PMC4434323.
